According to patent US20200239579A1 (Genmab, published 2020):
Read-outs that look alike come from different tables or passages of the source.

Columns and labels:
[1] = biological target: T1, cynomolgus monkey PD-L1 (full length, on CHO cells) (cynomolgus monkey (Macaca fascicularis), UniProt G7PSE7 19-290); test: flow cytometry on CHO cells transfected with cynomolgus PD-L1, PE anti-human IgG secondary, MFI (PE)
T1 construct: whole, on cells; also called PDL1 Mf; cynomolgus PD-L1
Protocol: (§1) Cells (3-5×10⁴ cells/well) were incubated in polystyrene 96-well round-bottom plates (Greiner bio-one, cat. no. 650101) with serial dilutions of antibodies (range 0.0001 to 10 μg/mL in 5-fold dilution steps) in 50 μL PBS/0.1% BSA/0.02% azide (staining buffer) at 4° C. for 30 min.
(§2) After washing twice in staining buffer, cells were incubated in 50 μL secondary antibody at 4° C. for 30 min. As a secondary antibody, R-Phycoerythrin (PE)-conjugated goat-anti-human IgG F(ab′)₂ (Cat. no. 109-116-098, Jackson ImmunoResearch Laboratories, Inc., West Grove, Pa.) diluted 1:500 in staining buffer, was used for all experiments. Next, cells were washed twice in staining buffer, re-suspended in 20 μL staining buffer and analyzed on an iQue screener (Intellicyt Corporation, USA). Binding curves were analyzed using non-linear regression (sigmoidal dose-response with variable slope) using GraphPad Prism V75.04 software (GraphPad Software, San Diego, Calif., USA).
(§3) Binding to CHO cells expressing cynomolgus PD-L1 was determined by flow cytometry using a method as described above.

[2] = biological target: T2, human PD-L1 (full length, on cells) (human, UniProt Q9NZQ7 19-290); test: flow cytometry on MDA-MB-231 cells, PE anti-human IgG secondary, MFI (PE)
T2 construct: The entry holds the signal peptide; also called CD274; B7H1
T2 sequence (Q9NZQ7 19-290 limits assumed): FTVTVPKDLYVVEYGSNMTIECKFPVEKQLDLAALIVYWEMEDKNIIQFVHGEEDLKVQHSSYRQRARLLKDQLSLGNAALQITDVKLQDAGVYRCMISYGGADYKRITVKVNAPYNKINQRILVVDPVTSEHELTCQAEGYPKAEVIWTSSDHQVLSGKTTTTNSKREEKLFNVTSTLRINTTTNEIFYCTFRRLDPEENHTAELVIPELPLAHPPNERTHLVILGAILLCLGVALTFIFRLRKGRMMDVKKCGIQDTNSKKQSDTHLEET
Protocol: as §1, §2

[3] = biological target: T2, human PD-L1 (full length, on cells); test: cell-based or functional assay
[4] = biological target: T1, cynomolgus monkey PD-L1 (full length, …); test: flow cytometry on CHO cells transfected with cynomolgus PD-L1, PE anti-human IgG secondary, MFI (PE); remark: listed apart in the source
Protocol: as §1, §2, §3

[5] = biological target: T2, human PD-L1 (full length, on cells); test: flow cytometry on MDA-MB-231 cells, PE anti-human IgG secondary, MFI (PE); remark: listed apart in the source
Protocol: as §1, §2

PDLoneECDHisCtag [6] = biological target: T3, PDLoneECDHisCtag (human, UniProt Q9NZQ7 19-238); test: BLI cross-block, second antibody on PDLoneECDHisCtag held by immobilised 476-N101Q-LC33S; bold = blocking
T3 construct: Expressed in HEK-293F cells; theoretical molecular weight 29 kDa; also called recombinant human PD-L1 ECD; human PD-L1 (BLI); not shown: C-terminal His-tag; C-tag
T3 sequence (Q9NZQ7 19-238, form in doubt): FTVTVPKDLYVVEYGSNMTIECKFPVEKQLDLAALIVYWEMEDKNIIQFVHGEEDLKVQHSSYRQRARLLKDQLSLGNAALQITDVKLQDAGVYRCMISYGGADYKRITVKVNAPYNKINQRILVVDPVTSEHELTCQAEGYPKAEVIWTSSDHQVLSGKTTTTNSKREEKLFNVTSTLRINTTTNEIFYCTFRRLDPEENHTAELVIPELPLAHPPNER
Protocol: (§4) Antibody cross-block testing was performed using biolayer interferometry (BLI) on an Octet HTX instrument (ForteBio). Antibodies (20 μg/ml in 10 mM sodium acetate buffer pH 6.0 (ForteBio)) were immobilized on Amine-Reactive 2nd Generation (AR2G) biosensors (ForteBio) according to the instructions of the manufacturer. After a baseline (50 s) in Sample Diluent (ForteBio), biosensors containing immobilized antibodies were loaded for 500 s with PDLoneECDHisCtag (100 nM or 2.7 μg/ml), after which the association response of a second antibody (10 μg/ml) was followed for 500 s. Biosensors were regenerated by using 3 times 5 s alternating exposures to 10 mM glycine pH 2.5 and Sample Diluent. The experiment was repeated with a new set of second antibodies starting from the baseline step. Each biosensor was used 6 times. The experiment was performed at 30° C. using a shaker speed of 1000 rpm. Data was analyzed using Data Analysis Software v9.0.0.12 (ForteBio). The Y-axis was aligned to the association step and Savitzky-Golay filtering was applied. The average buffer response was subtracted from the association response of the second antibody in order to correct for the dissociation of PDLoneECDHisCtag from the immobilized antibody. The corrected association responses were plotted in a matrix format.

[7] = biological target: T2, human PD-L1 (full length, on cells); test: flow cytometry on PC3 cells, PE anti-human IgG secondary, MFI (PE)
Protocol: as §1, §2

PDLoneECDHisCtag [8] = biological target: T3, PDLoneECDHisCtag; test: BLI cross-block, second antibody on PDLoneECDHisCtag held by immobilised 632; bold = blocking
Protocol: as §4

PDLoneECDHisCtag [9] = biological target: T3, PDLoneECDHisCtag; test: BLI cross-block, second antibody on PDLoneECDHisCtag held by immobilised 547; plain = non-blocking
Protocol: as §4

[10] = biological target: T2, human PD-L1 (full length, on cells); test: cell-based or functional assay; remark: listed apart in the source
PDLoneECDHisCtag [11] = biological target: T3, PDLoneECDHisCtag; test: BLI cross-block, second antibody on PDLoneECDHisCtag held by immobilised 421-LC91S; plain = non-blocking
Protocol: as §4

[12] = biological target: T1, cynomolgus monkey PD-L1 (full length, …); test: flow cytometry on CHO cells transfected with cynomolgus PD-L1, PE anti-human IgG secondary, MFI (PE); remark: listed apart in the source
Protocol: as §1, §2, §3

[13] = biological target: T2, human PD-L1 (full length, on cells); test: cell-based or functional assay; remark: listed apart in the source
[14] = biological target: T2, human PD-L1 (full length, on cells); test: flow cytometry on MDA-MB-231 cells, PE anti-human IgG secondary, MFI (PE); remark: listed apart in the source
Protocol: as §1, §2

PDLoneECDHisCtag [15] = biological target: T3, PDLoneECDHisCtag; test: BLI cross-block, second antibody on PDLoneECDHisCtag held by immobilised 511-LC33S; plain = non-blocking
Protocol: as §4

T1 sequence (G7PSE7 entry or part of it): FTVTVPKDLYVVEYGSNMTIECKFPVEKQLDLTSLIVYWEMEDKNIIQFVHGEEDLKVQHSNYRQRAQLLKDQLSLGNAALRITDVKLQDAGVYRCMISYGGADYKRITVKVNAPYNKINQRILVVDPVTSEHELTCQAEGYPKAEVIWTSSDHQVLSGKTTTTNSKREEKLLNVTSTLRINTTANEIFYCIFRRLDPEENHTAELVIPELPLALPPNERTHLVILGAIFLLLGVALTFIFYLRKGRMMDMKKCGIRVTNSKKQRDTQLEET

B1: IgG1-338-FEAR (antibody, V domains shown)
VH: EVQVVESGGGLVQPGGSLRLSCAASGFTFSRFWMSWVRQAPGKGLEWVANIKQDGGEKYYVDSVKGRFTISRDNAKNSLYLQMNSLRGEDTAVYYCARDDNWNGHFDYWGQGTLVTVSS
VL: DIQMTQSPSTLSASVGDRVTITCRASQSISSWLAWYQQKPGKAPNLLIYKASSLESGVPSRFSGSGSGTEFTLTISSLQPDDFATYYCQQYYGSYITFGQGTRLEIKR
With B1 the “EC50 (read off the curve)” value [1] was about 0.07 µg/mL, the “EC50 (read off the curve)” value [2] was about 0.02 µg/mL and the “EC50 (read off the curve)” value [3] was about 0.03 µg/mL.

B2: IgG1-511-LC33S-FEAR (antibody, V domains shown)
VH: QVQLVQSGSELKKPGASVMVSCKASGYTFTSYVMNWVRQAPGQGLEWMGWINSYTGNPTSAQGFTGRFVFSFDTSVNTAYLQISSLKAEDTAVYYCARGYCTSTSCYLDYWGQGTLVTVSS
VL: SYELTQPPSVSVSPGHTARITCSGDALPKKYASWFQQKSGQAPVLVIYEDSKRPSGIPERFSGSTSGTMATLTISGAQVEDETDYYCYSADTSGTHRVFGGGTKLTVLG
In the case of B2, the “EC50 (read off the curve)” value [4] is reported as about 0.08 µg/mL, the “EC50 (read off the curve)” value [5] is reported as about 0.08 µg/mL and the “association response of the second antibody” value (shortened to “association response”) (PDLoneECDHisCtag [6]) is reported as 0 nm. The “EC50 (read off the curve)” value [7] was about 0.03 µg/mL, the “association response” value (PDLoneECDHisCtag [8]) was 0 nm and the “association response” value (PDLoneECDHisCtag [9]) was 0.7 nm. The “EC50 (read off the curve)” value [10] was about 0.05 µg/mL and the “association response” value (PDLoneECDHisCtag [11]) was 0.3 nm.

B3: IgG1-547-FEAR (antibody, V domains shown)
VH: EVQLLEPGGGLVQPGGSLRLSCEASGSTFSTYAMSWVRQAPGKGLEWVSGFSGSGGFTFYADSVRGRFTISRDSSKNTLFLQMSSLRAEDTAVYYCAIPARGYNYGSFQHWGQGTLVTVSS
VL: SYVLTQPPSVSVAPGQTARITCGGNNIGSKSVHWYQQKPGQAPVLVVYDDNDRPSGLPERFSGSNSGNTATLTISRVEAGDEADYYCQVWDSSSDHVVFGGGTKLTVLG
In the case of B3, the “EC50 (read off the curve)” value [12] is reported as about 0.05 µg/mL, the “EC50 (read off the curve)” value [13] is reported as about 0.02 µg/mL and the “EC50 (read off the curve)” value [14] is reported as about 0.03 µg/mL. For the same binder, the “association response” value (PDLoneECDHisCtag [15]) was 0.6 nm.
